Data on one molecule can be found in patent publication KR20180129514A (dated 2018).

The experiment concerns the target T1, mCherry H-RAS G12V (NIH3T3 세포주에서 발현) (UniProt P01112 1-186).
T1 construct: whole, on cells; Intracellular, at the inner face of the cell membrane; also called 세포내 활성화된 H-RAS G12V 돌연변이; 활성화된 RAS; not shown: mCherry red fluorescent protein
The experiment in a line: confocal microscopy, overlap in NIH3T3 cells expressing mCherry H-RAS G12V.

B1: 세포질 침투 항체 TMab4 (antibody, V domains shown)
VH: EVQLVESGGGLVQPGGSLRLSCAASGYTFTSYVMHWVRQAPGKGLEWVSAINPYNDGNYYADSVKGRFTISRDNSRKTLYLQMNSLRAEDTAVYYCARGAYKRGYAMDYWGQGTTVTVSS
VL: DLVMTQSPSSLSASVGDRVTITCKSSQSLFNSRTRKNYLAWYQQKPGKAPKLLIYWASTRESGVPSRFSGSGSGTDFTLTISSLQPEDFATYYCQQYYYHMYTFGQGTKVEIKR
notes: Full IgG format (CH1-hinge-CH2-CH3 and CL, detected with anti-human Fc); also called cytotransmab; CT
As for B1, the binding result is given as “no binding (tested: 2 μM)”.
